Measured values from paper PMC3229523, “Identification of Lactoferricin B Intracellular Targets Using an Escherichia coli Proteome Chip” (PLoS ONE, 2011).
Ends that are not written are not given here. * marks the point of attachment. Biotin = O=C1N[C@H]2[C@H](CS[C@H]2CCCCC(=O)*)N1

Assays:
Assay in all cases: peptide or protein array; E. coli proteome chip: purified His-tagged proteins printed in duplicate on Fullmoon slides, blocked with 1% BSA; 10 nM N-terminal biotinylated LfcinB with 1% BSA, room temperature, 1 h; detected with DyLight 649-labeled streptavidin, ratio to DyLight 549-labeled anti-His antibody; ProCAT normalisation, local cut-off; triplicate chips
Conditions in all cases: both partners purified
YjdK = biological target: T1, YjdK (E. coli K-12, UniProt P0AF61 1-98)
T1 construct: YjdK, E. coli K-12
T1 sequence (looked up): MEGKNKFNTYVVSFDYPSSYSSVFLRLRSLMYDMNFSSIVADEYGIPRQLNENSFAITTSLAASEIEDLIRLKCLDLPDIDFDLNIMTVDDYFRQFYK

YbaO = biological target: T2, YbaO (E. coli K-12, UniProt P0ACJ5 1-152)
T2 construct: YbaO, E. coli K-12
T2 sequence (looked up): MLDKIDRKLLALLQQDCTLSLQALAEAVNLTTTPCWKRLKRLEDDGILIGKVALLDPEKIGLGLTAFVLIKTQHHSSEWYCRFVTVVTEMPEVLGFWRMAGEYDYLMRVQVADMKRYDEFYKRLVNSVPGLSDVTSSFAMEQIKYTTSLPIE

YbeQ = biological target: T3, YbeQ (E. coli K-12, UniProt P77234 1-325)
T3 construct: YbeQ, E. coli K-12
T3 sequence (looked up): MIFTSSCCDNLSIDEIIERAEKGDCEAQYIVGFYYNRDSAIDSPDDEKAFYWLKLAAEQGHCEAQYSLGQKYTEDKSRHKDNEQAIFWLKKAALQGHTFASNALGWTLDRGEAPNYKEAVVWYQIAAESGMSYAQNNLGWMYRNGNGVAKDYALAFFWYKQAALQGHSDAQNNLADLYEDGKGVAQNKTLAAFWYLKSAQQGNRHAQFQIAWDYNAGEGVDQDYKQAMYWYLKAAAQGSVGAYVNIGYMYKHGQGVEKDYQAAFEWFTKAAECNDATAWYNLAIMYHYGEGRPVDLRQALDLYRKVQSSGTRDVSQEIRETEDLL

SoxR = biological target: T4, SoxR (E. coli K-12, UniProt P0ACS2 1-154)
T4 construct: SoxR, E. coli K-12
T4 sequence (looked up): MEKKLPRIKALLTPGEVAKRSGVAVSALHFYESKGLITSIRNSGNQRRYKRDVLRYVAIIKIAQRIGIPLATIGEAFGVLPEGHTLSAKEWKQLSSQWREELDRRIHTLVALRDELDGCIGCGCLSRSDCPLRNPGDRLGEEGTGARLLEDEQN

YqcA = biological target: T5, YqcA (E. coli K-12, UniProt P65367 1-149)
T5 construct: YqcA, E. coli K-12
T5 sequence (looked up): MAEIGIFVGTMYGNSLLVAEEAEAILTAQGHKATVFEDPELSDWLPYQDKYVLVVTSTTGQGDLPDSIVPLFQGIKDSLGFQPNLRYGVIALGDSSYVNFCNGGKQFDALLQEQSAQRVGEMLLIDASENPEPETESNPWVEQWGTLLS

YrfI = biological target: T6, YrfI (E. coli K-12, UniProt P0A6Y5 1-292)
T6 construct: YrfI, E. coli K-12
T6 sequence (looked up): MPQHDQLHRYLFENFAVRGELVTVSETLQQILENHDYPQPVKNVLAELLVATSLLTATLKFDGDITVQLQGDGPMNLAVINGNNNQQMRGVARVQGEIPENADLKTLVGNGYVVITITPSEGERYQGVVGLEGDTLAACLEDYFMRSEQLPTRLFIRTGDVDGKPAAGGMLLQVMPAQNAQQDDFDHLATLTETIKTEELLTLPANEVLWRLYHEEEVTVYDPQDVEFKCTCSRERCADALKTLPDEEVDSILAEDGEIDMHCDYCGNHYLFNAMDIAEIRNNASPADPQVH

YjdI = biological target: T7, YjdI (E. coli K-12, UniProt P0AF59 1-76)
T7 construct: YjdI, E. coli K-12
T7 sequence (looked up): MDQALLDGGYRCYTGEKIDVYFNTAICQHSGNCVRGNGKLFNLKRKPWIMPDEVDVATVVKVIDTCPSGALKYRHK

Measured: binding result

B1: N-terminal biotinylated Lactoferricin B (peptide, UniProt P24627 36-60, looked up)
peptide: Biotin-FKCRRWQWRMKKLGAPSITCVRRAF
modifications: ends and bridges not checked
notes: lactoferricin B (LfcinB), cationic antimicrobial peptide of 25 amino acids; also called biotinylated LfcinB; biotin-labeled LfcinB; source: bought: Kelowna Inc
binds: all assays above
